Patent KR20130033273A (dated 2013)

Target: T1, IGF-1R (Insulin-like growth factor 1 receptor) on the surface of MCF-7 cells (UniProt P08069 31-1367, limits assumed)
T1 construct: whole, on cells; Endogenous receptor of MCF-7 cells; also called MCF-7 세포 표면 IGF-1R 항원; IGF-1 수용체
Test: flow cytometry (FACS) on MCF-7 cells, 1 ug/ml antibody, anti-human IgG-FITC

T1 sequence (P08069 31-1367 limits assumed): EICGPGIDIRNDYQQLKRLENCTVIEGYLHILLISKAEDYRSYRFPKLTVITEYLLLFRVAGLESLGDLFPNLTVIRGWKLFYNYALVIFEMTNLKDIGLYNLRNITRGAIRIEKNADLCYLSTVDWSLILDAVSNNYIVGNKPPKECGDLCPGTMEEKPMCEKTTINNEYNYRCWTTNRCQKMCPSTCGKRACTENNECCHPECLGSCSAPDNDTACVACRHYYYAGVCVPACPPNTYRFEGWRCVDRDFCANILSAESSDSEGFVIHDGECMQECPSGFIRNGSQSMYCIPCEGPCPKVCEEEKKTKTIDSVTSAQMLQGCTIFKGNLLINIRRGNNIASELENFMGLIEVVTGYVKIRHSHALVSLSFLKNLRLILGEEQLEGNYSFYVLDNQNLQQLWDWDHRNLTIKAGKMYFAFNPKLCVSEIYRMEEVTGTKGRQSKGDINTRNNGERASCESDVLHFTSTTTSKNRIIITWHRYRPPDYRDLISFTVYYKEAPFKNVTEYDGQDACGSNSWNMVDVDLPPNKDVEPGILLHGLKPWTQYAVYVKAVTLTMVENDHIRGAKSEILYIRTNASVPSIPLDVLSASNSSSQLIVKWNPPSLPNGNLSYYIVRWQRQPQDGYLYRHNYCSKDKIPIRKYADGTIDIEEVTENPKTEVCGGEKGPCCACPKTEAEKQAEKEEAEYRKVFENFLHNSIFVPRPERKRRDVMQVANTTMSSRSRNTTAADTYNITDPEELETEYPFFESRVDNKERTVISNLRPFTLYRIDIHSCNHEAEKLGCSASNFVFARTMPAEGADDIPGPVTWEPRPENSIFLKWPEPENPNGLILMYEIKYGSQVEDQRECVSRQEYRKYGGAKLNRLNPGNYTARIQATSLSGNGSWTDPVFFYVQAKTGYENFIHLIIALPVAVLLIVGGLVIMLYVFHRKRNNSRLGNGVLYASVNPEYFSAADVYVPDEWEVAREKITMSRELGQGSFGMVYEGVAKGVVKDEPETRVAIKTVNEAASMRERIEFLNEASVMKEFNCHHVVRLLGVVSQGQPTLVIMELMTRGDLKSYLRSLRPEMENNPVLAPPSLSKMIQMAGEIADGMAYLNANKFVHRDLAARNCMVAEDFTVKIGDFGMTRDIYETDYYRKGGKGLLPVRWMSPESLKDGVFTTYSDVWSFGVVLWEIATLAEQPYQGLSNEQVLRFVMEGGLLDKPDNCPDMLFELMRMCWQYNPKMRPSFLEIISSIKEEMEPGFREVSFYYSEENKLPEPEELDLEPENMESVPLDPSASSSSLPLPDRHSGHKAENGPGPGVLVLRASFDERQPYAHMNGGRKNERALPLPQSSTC

binding result: binds
B1: 항IGF-1R 항체(A12) (antibody, human IgG1, lambda, V domains shown)
VH: EVQLVQSGAEVKKPGSSVKVSCKASGGTFSSYAISWVRQAPGQGLEWMGGIIPIFGTANYAQKFQGRVTITADKSTSTAYMELSSLRSEDTAVYYCARAPLRFLEWSTQDHYYYYYMDVWGKGTTVTVSS
VL: SSELTQDPAVSVALGQTVRITCQGDSLRSYYATWYQQKPGQAPILVIYGENKRPSGIPDRFSGSSSGNTASLTITGAQAEDEADYYCKSRDGSGQHLVFGGGTKLTVLG
notes: IgG form; also called 항암항체(A12); Imclone사(A12) 항IGF-1R 항체
